Experimental data from paper PMC4655273, “Schwann Cell Expressed Nogo-B Modulates Axonal Branching of Adult Sensory Neurons Through the Nogo-B Receptor NgBR” (Frontiers in Cellular Neuroscience, 2015).

Molecular target: T1, Nogo-B (mouse (endogenous in primary Schwann …, UniProt Q99P72-5 1-356))
T1 sequence (looked up): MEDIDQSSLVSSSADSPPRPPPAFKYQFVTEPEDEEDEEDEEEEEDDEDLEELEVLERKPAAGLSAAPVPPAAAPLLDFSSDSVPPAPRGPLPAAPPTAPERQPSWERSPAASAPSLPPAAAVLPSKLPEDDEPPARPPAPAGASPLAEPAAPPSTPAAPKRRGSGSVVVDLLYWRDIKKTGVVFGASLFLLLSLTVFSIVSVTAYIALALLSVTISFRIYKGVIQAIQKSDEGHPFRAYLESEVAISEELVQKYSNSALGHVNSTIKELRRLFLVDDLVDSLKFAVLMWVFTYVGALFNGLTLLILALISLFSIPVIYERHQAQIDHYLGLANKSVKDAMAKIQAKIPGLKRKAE
Experiment: cell-based or functional assay

B1: Nogo-B receptor NgBR (receptor, mouse (endogenous in sensory neurons), UniProt Q99LJ8 1-297, looked up)
chain: MTGLYELVWRVLHALLCLHLTLTSWLRVRFGTWNWIWRRCCRAASAAVLAPLGFTLRKPRAVGRNRRHHRHPHGGPGPGPGPAATHPRLRWRADVRSLQKLPVHMGLLVTEEVQEPSFSDIASLVVWCMAVGISYISVYDHQGIFKRNNSRLMDEILKQQQELLGQDCSKYSAEFANSNDKDDQDLNCPSAVKVLSPEDGKADIVRAAQDFCQLVAQQQRKPTDLDVDLLGSLLSSHGFPDPDLVLKFGPVDSTLGFLPWQIRLTEIVSLPSHLNISYEDFFSALRQYAACEQRLGK
With B1 the “total neurite length (TNL) of adult wildtype sensory neurons on wildtype Schwann cells with recombinant NgBR-Ecto at 1 μg/ml, relative to control (set to 1.0)” value was 0.74 relative to the control levels.
